From article PMC5487730, “Functional Role of Lanthanides in Enzymatic Activity and Transcriptional Regulation of Pyrroloquinoline Quinone-Dependent Alcohol Dehydrogenases in Pseudomonas putida KT2440” (mBio, 2017)
Each block holds one molecule with its values, some of them ahead of it.

Key:
PedH = target: T1, PedH (Pseudomonas putida, UniProt Q88JH0); assay: DCPIP/PMS dye-linked activity titrated with PQQ, one-site binding fit; assay type: biochemical; conditions: 10 mM ethanol, 1 µM PrCl3, 25 mM imidazole, 100 mM Tris HCl pH 8, 30°C preincubation
T1 sequence (Q88JH0 28-595): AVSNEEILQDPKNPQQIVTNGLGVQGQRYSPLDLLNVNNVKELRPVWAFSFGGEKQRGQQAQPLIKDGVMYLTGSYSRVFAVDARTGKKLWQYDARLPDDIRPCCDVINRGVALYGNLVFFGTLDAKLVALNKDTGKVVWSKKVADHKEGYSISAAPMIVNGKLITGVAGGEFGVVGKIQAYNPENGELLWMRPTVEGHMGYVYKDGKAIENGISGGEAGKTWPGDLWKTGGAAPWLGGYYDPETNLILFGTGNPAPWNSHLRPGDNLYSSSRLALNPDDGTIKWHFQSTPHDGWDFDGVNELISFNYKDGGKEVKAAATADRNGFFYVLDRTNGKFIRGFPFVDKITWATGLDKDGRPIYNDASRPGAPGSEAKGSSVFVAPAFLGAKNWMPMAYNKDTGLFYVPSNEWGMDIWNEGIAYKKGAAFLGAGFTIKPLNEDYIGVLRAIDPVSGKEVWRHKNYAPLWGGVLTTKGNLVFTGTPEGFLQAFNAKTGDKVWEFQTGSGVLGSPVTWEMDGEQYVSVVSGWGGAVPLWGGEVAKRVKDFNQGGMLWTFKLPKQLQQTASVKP

PedE = target: T2, PedE (Pseudomonas putida, UniProt Q88JH5); assay: as above; assay type: biochemical; conditions: 10 mM ethanol, 1 mM CaCl2, 25 mM imidazole, 100 mM Tris HCl pH 8, 30°C preincubation
T2 sequence (Q88JH5 34-631): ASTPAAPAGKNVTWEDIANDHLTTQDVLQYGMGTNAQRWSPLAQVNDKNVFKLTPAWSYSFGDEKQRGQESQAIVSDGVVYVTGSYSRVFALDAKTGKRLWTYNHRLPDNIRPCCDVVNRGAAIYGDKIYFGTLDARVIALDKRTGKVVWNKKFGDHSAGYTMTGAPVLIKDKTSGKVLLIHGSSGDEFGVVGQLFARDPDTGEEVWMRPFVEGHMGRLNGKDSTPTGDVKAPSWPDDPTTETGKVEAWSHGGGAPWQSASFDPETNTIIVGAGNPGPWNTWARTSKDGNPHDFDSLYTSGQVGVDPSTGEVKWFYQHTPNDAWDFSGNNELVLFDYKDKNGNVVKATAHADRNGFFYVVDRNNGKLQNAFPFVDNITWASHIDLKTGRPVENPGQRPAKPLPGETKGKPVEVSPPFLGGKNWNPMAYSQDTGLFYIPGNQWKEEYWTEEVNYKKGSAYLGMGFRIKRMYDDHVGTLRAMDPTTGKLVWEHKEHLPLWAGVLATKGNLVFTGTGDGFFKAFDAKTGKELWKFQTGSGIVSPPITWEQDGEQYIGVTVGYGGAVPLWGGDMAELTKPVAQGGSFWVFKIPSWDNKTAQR

[1] = substrate: OCCc1ccccc1; assay: DCPIP/PMS dye-linked colorimetric assay, Michaelis-Menten fit; assay type: biochemical, Pseudomonas putida; conditions: 1 µM PrCl3, 1 µM PQQ, 25 mM imidazole, 500 µM PMS, 150 µM DCPIP, 100 mM Tris HCl pH 8, 30°C preincubation
[2] = substrate: CC=O; assay: as above; assay type: biochemical, Pseudomonas putida; conditions: 1 µM PrCl3, 1 µM PQQ, 25 mM imidazole, 500 µM PMS, 150 µM DCPIP, 100 mM Tris HCl pH 8, 30°C preincubation
purified protein = substrate: CCO; assay: purified protein; conditions: 1 µM PrCl3, 1 µM PQQ, 25 mM imidazole, 500 µM PMS, 150 µM DCPIP, 100 mM Tris HCl pH 8, 30°C preincubation

- Kd (PedH): 0.041 µM
- Kd (PedE): 3.5 µM
Molecule: O=C(O)c1cc(C(=O)O)c2c(n1)C(=O)C(=O)c1cc(C(=O)O)[nH]c1-2 [PQQ]

B1: PedH (Pseudomonas putida KT2440) (protein)
chain: T1 sequence (Q88JH0 28-595)
- Km [1]: 329 ± 22 µM
- Km [2]: 2261 ± 457 µM
- Km (purified protein): 177 µM
